Assay results reported in publication PMC12934148.

Experiments:
[1] = system: Cas10-Csm K524E (Staphylococcus epidermidis); assay: fluorescence polarization; details: no Mg2+, 1 mM EDTA, Kd only in Fig 8B, 50 mM Tris-HCl pH 8.0, 400 mM NH4Cl, 5% v/v glycerol, 0.025% w/v BSA, 10 nM RNA, 2 h at room temperature
[2] = system: Cas10-Csm R754E (Staphylococcus epidermidis); assay: fluorescence polarization; details: no Mg2+, 1 mM EDTA, Kd only in Fig 8B, 50 mM Tris-HCl pH 8.0, 400 mM NH4Cl, 5% v/v glycerol, 0.025% w/v BSA, 10 nM RNA, 2 h at room temperature

Sequence: CUUUGUACUGAUGAUUUAUAUACAAGCCGAUACGUUCUCUAAA [pmRNA01-FMM2 (Nes target, segment 2 mismatch)]
- binding signal (fold Kd vs same mutant on cognate) [1]: 2.7
- binding signal (fold Kd vs same mutant on cognate) [2]: 1.6

Sequence: CUUUGUACUGAUGAUUUAUAUACUUCGGCAUACGUUCUCUAAA [pmRNA01-F (Nes cognate target)]
- binding signal (fold Kd vs wild type on cognate) [1]: 1.8
- binding signal (fold Kd vs wild type on cognate) [2]: 2.8
